Here are results for three molecules from article PMC4400149, “The Carboxy-Terminal Domain of Erb1 Is a Seven-Bladed ß-Propeller that Binds RNA” (PLoS ONE, 2015).

The target in data set [1] is T1, ChErb1 432-801 (C-terminal seven-bladed beta-propeller) (Chaetomium thermophilum var. thermophilum) (UniProt G0SCK6).
T1 sequence: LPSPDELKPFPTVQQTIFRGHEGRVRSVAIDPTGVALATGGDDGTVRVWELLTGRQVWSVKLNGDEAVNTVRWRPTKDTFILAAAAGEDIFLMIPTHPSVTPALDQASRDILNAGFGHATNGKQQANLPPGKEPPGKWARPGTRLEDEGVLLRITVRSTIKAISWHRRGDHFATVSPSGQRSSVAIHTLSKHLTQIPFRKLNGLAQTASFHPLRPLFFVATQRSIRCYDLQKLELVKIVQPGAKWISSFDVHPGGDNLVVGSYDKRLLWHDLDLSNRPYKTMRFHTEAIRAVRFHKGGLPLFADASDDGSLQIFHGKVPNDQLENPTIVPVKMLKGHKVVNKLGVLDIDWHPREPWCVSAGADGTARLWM
The data set can be described thus: fluorescence titration (intrinsic Trp). The settings on record: apparent KD; emission at 315 nm; 1.5 uM protein; Fluorescence: 20 mM Hepes pH 7.5, 150 mM NaCl, 5% glycerol, 2 mM beta-mercaptoethanol, 25 C; bead pull-down: 50 mM Tris pH 8, 100 mM NaCl, 5 mM MgCl2, 3 mM ….

Data set [2] has as its target T2, Erb1 (Eukaryotic Ribosome Biogenesis 1) from Saccharomyces cerevisiae (Saccharomyces cerevisiae, UniProt Q04660 1-807).
T2 construct: Erb1, Saccharomyces cerevisiae, cloned from genomic DNA; 807 residues; Vector pET28-NKI/LIC 6His/3C: N-terminal 6xHis tag followed by a 3C protease site; no cleavage of the tag is told; also called 6xHis-Erb1; source: E. coli BL21 Codon Plus, purified (IMAC, size exclusion chromatography)
T2 sequence (looked up): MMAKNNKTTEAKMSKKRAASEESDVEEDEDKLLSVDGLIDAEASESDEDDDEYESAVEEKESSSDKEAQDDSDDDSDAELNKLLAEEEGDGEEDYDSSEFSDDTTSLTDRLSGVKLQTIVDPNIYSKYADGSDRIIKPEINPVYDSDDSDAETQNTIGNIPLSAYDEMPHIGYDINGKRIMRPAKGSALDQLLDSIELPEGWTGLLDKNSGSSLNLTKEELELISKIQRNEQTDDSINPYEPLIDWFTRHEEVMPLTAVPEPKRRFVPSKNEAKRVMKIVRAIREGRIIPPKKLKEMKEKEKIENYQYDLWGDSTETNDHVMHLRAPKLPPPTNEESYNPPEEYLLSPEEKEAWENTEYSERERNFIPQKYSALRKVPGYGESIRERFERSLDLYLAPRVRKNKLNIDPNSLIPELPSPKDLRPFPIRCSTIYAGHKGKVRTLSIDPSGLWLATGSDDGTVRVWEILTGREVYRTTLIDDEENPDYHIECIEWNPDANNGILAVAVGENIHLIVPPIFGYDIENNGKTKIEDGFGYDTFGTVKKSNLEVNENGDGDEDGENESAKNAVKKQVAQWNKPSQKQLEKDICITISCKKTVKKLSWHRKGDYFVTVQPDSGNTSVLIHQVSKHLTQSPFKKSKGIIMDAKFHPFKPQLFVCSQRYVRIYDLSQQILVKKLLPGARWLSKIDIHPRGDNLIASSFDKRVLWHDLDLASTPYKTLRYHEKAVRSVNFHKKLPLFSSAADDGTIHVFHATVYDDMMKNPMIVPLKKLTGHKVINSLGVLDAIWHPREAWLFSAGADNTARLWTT
Put plainly: SEC; purified Nop7 and Erb1 mixed in equimolar amounts, Superdex200 16/60 in SE buffer (20mM Hepes pH 7.5; 0.25M NaCl; 2 mM β-mercaptoethanol, 5% glycerol); fractions of the heterodimer collected. The settings on record: both partners purified.

Data set [3] deals with T3, ChErb1 432-801 (C-terminal seven-bladed beta-propeller) (Chaetomium thermophilum var. …, UniProt G0SCK6 432-801).
T3 sequence: T1 sequence
The data set can be described thus: BLI; Fluorescence: 20 mM Hepes pH 7.5, 150 mM NaCl, 5% glycerol, 2 mM beta-mercaptoethanol, 25 C; bead pull-down: 50 mM Tris pH 8, 100 mM NaCl, 5 mM MgCl2, 3 mM DTT, 0.1% Triton X-100, 0.1 mg/ml BSA, room temperature; BLI conditions not in material. Conditions: protein: recombinant; tags: N-terminal 6xHis with 3C site (pET28-NKI/LIC 6His/3C); single strand.

Take free poly(U): in data set [1], the Kd was 3000 nM.

B1: Nop7 from Saccharomyces cerevisiae (natural protein, UniProt P53261 1-605, looked up)
chain: MRIKKKNTRGNARNFITRSQAVRKLQVSLADFRRLCIFKGIYPREPRNKKKANKGSTAPTTFYYAKDIQYLMHEPVLAKFREHKTFARKLTRALGRGEVSSAKRLEENRDSYTLDHIIKERYPSFPDAIRDIDDALNMLFLFSNLPSTNQVSSKIINDAQKICNQWLAYVAKERLVRKVFVSIKGVYYQANIKGEEVRWLVPFKFPENIPSDVDFRIMLTFLEFYSTLLHFVLYKLYTDSGLIYPPKLDLKKDKIISGLSSYILESRQEDSLLKLDPTEIEEDVKVESLDASTLKSALNADEANTDETEKEEEQEKKQEKEQEKEQNEETELDTFEDNNKNKGDILIQPSKYDSPVASLFSAFVFYVSREVPIDILEFLILSCGGNVISEAAMDQIENKKDIDMSKVTHQIVDRPVLKNKVAGRTYIQPQWIFDCINKGELVPANKYLPGEALPPHLSPWGDAIGYDPTAPVEEGEEEESESESESEDQVEEEDQEVVAGEEDDDDDEELQAQKELELEAQGIKYSETSEADKDVNKSKNKKRKVDEEEEEKKLKMIMMSNKQKKLYKKMKYSNAKKEEQAENLKKKKKQIAKQKAKLNKLDSKK
notes: Nop7, Saccharomyces cerevisiae, cloned from genomic DNA; called full length Nop7 in the results; Vector pNIC28-Bsa4: N-terminal 6xHis tag followed by a TEV site; no cleavage of the tag is told; also called 6xHis-Nop7; source: E. coli BL21 Codon Plus, purified (IMAC, size exclusion chromatography)
B1: in data set [2], the binding result is on record as “binds”.

Take UUUUUUUUUUUUUUU (ssRNA) [biotinylated poly(U) 15-mer]: the Kd in data set [3] was 170 nM.
